Reference: the supplement of paper PMC10567573
± gives the standard deviation.

Test: protein stability index of a GFP-peptide fusion (GPS, HEK-293T) (PSI 1-6); higher = more stable
Conditions: c terminus: a fixed tail appended
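Note: 24-mer peptide tiles fused after GFP, lentivirally expressed, FACS-sorted into six equal bins by GFP/DsRed ratio, decoded by Illumina sequencing, PSI is the read-weighted mean bin number.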

Row | Sequence | protein stability index (treatment: DMSO) | protein stability index (treatment: MLN4924 1 uM, 8 h)
1 | LKFHKLVNVTIHFRLKTINLQSLI [MCOLN1] | 3.17 ± 0.37 | 3.12 ± 0.31
2 | MPPGLHHQRKYTQSFCGENIMMPM [ZNF207] | 2.29 ± 0.6 | 2.27 ± 0.34
3 | NIRSARGNNPNGREAKMICFKSVA [ELOA2] | 3.4 ± 0.15 | 3.34 ± 0.27
4 | PQVPPSQPLRPWAGGDVPHKTHQA [DYRK1B] | 4.41 ± 0.32 | 4.63 ± 0.21
5 | ECEEGELSFYDAERHCHLYTFHAR [TRIM35] | 3.18 ± 0.27 | 3.21 ± 0.24
6 | YFGSFATVGLLWFAHHSLFLHVRK [TMEM175] | 3.17 ± 0.56 | 3.15 ± 0.42
7 | TRAILRERICSEEERAKAKHLARQ [CHCHD3] | 3.52 ± 0.33 | 3.76 ± 0.27
8 | GTAFDAETDSEMNSQESRSDLEDM [SMG5] | 5.63 ± 0.24 | 5.5 ± 0.49
9 | PEVLDRESRDRPSCAPSASIPKLK [PWWP2B] | 5.04 ± 0.21 | 5.25 ± 0.15
10 | IYVIGDLDTGTNYDYVREFKRSTG [GAN] | 2.18 ± 0.43 | 2.04 ± 0.43
11 | SEFRALQFSLMLCAFVGALGGAAF [SPNS1] | 3.14 ± 0.048 | 3.04 ± 0.79
12 | STIGFKLPNHRAAKRLWKVCVEHH [EPB41L3] | 2.26 ± 0.27 | 2.58 ± 0.45
13 | DQENFQGKRMEFTSSCPNVSERSF [CRYBA1] | 4.49 ± 0.12 | 4.46 ± 0.24
14 | PYQVNGVNPAYPESRYTSDYFISY [ETS1] | 2.18 ± 0.18 | 2.27 ± 0.21
15 | AWEPRSESQASRKEEGLPEEEPSH [ZNF8] | 5.38 ± 0.59 | 5.59 ± 0.1
16 | HNIVFGDYTWTEFDEPFLTRNVQS [TRIP13] | 2.63 ± 0.06 | 2.61 ± 0.32
17 | LLEERRPADSAQLLSLNSLLPESG [TFE3] | 4.37 ± 0.42 | 4.54 ± 0.24
18 | VVQGPDGRLELKPLLLRLPRICQR [FANCE] | 2.35 ± 0.33 | 2.45 ± 0.15

Row | Sequence | protein stability index (treatment: DMSO) | protein stability index (treatment: MLN4924 1 uM, 8 h)
19 | DIDLSLYIPRDVDETGITVASLER [ZC3H15] | 3.19 ± 0.28 | 3.5 ± 0.23
20 | VIDLAESLVADNCVTLVWRMPDED [FSD1] | 2.35 ± 0.33 | 2.79 ± 0.27
21 | GGPAQNAPHQQPPAPPSDALLDLH [TFE3] | 5.06 ± 0.29 | 5.29 ± 0.2
22 | RSSPDDLKALTRNVNRLNESFRDL [SCARA5] | 3.95 ± 0.34 | 3.88 ± 0.32
23 | EHGYENMNHFTVNLNREEKIIREI [TRIM55] | 3.64 ± 0.19 | 3.85 ± 0.27
24 | IADLFVADQRSRMLSIFYFAIPVG [SPNS1] | 3.08 ± 0.65 | 2.94 ± 0.41
25 | ATTSASDSLKPEQLDIEEEGRPGA [TFE3] | 5.5 ± 0.23 | 5.35 ± 0.12
26 | KHLARQLEEKDRVLKKQDAFYKEQ [CHCHD3] | 4.33 ± 0.2 | 4.57 ± 0.24
27 | MEYCLEVIKENDPSGFLQISDALI [TRIM9] | 2.47 ± 0.29 | 2.69 ± 0.28
28 | WTTEQQQRFHEICSNLVKTRRRAV [ARL6IP1] | 2.8 ± 0.2 | 3.07 ± 0.41
29 | MCMVMRGVQKMNSKTVTSTMLGVF [GCH1] | 2.31 ± 0.43 | 2.56 ± 0.44
30 | YTAQQDQELDIKKNERLWLLDDSK [NCK2] | 4.37 ± 0.27 | 4.65 ± 0.15
31 | PLMQGPRTRPRKPIRCGEVLFAVG [KLHL20] | 2.23 ± 0.33 | 1.92 ± 0.5
32 | IPAAVLAGFTGSGPIQLWQFLLEL [ETS2] | 2.69 ± 0.62 | 2.5 ± 0.25
33 | NPQSPPQDSSVTSKRNIKKGAVPR [HDAC6] | 4.99 ± 0.43 | 5.14 ± 0.38
34 | RVDQDKDKDCSLDCAGSPQKPLCA [SMOC2] | 5.39 ± 0.34 | 5.31 ± 0.32
35 | SKLSLLLNDISRKSEGLSGRVLRK [TRIP13] | 2.82 ± 0.28 | 2.82 ± 0.31
36 | MACHRCLVYLGDLSRYQNELAGVD [SMG5] | 2.64 ± 0.7 | 2.54 ± 0.55
